Laboratory results as given in PMC4938498, “Molecular, Biochemical, and Dietary Regulation Features of α-Amylase in a Carnivorous Crustacean, the Spiny Lobster Panulirus argus” (PLoS ONE, 2016).

Substrate: O=[N+]([O-])c1ccc(O[C@H]2O[C@H](CO)[C@@H](O[C@H]3O[C@H](CO)[C@@H](O[C@H]4O[C@H](CO)[C@@H](O)[C@H](O)[C@H]4O)[C@H](O)[C@H]3O)[C@H](O)[C@H]2O)c(Cl)c1
Assay: purified protein
Type: biochemical, Panulirus argus
Conditions: 50 mM MES pH 5.5, 0.3 M NaCl, 25 mM CaCl2, 37°C

B1: lobster α-amylase (PaAmy) (Panulirus argus) (protein)
chain: QWDPHVTNGQAIVHLFEWRWSDIASECENFLGPRGYGGVQVSPPNENVVVYQDEKSRPWWERYQPVSYKIATRSGDEASFKDMVNRCNNAGVRIYVDAVINHMSGWWPTGTAATGGSTFDAGAESYPAVPYSAFDFNDANCHTASGTIEDYGDAEQVRNCKLVGLNDLNQGTDYVRGKIRDYLNTLTSWGVAGFRVDATKHMWPGDLKAIFDSLDDLSPHYFDAGSRPFIFQEVIDLGGEPITSSQYVGNGRVTEFKYGKSLGESFNGNNPLKWFSTFGESWGMVDRGNAVVFIDNHDNQRTGGDMILTFRSSKWYKMANAYMLAWPYGFPRVMSSFYWDQWWENGHDKNDWTGPPHDGSYNIVGPTFNPDDSCGNGWICEHRWRQIYNMVQFRNVAHGTDMNDWWDNGSNQISFCRGDRGFIAINNDPWDMKESRQTCLSSGTYCDVISGSKIQGSCTGKTVTVNADGFAYIEILNSEEDGVLAIHRDSKL
notes: native, purified from digestive gland pool; mature enzyme after 21-residue signal peptide (cleavage A21/Q22 predicted); precursor 513 residues; N-glycosylation N429 predicted
  Km: 360 ± 52 µM
  kcat: 28.42 ± 1.203 s⁻¹
